In patent US20080044815A1, “Genetic Screen for Interaction Interface Mapping” (priority 2003, published 2008):
Entries after “also recorded” stand apart in the source; their conditions may differ.

T1: MKK7 (Mus musculus, UniProt Q8CE90)
T1 construct: expressed in transfected cells; host or cells: COS cells
T1 sequence (Q8CE90 1-419 isoform Q8CE90-2): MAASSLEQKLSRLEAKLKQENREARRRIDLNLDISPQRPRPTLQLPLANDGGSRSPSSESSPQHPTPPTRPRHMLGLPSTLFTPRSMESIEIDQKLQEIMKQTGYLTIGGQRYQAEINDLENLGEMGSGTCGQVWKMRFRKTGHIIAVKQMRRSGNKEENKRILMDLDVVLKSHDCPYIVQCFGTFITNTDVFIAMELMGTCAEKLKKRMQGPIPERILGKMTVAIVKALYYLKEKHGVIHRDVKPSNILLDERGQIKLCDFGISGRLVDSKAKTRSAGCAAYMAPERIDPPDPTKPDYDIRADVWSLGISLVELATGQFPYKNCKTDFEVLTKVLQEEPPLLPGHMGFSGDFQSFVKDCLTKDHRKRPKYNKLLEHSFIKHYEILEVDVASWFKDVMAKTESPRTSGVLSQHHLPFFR


Experiments:
[1] = molecular target: T1, MKK7; assay: Phospho-blotting for dual-phosphorylated JNK in COS cells co-transfected with MKK7; type: cell-based; conditions: antibody to dual-phosphorylated JNK
[2] = test system: GST-MKK4(ED); assay: In vitro phosphorylation (activation) of immunoprecipitated JNK by constitutively active MKK4; type: biochemical; conditions: [32P]-ATP, relative to autophosphorylation
Protocol: FIG. 15a is a representation showing that JNK mutants were not activated by constitutively-active MKK4 (MKK4(ED)) or MKK7. […] JNK proteins were immunoprecipitated from transfected cell lysates, and immunoprecipitates were used as the substrates in in vitro kinase assays with GST-MKK4(ED). Following separation by SDS-PAGE, activation of JNK and mutant proteins was assessed by autoradiography (upper panel) (n=2). Coomassie Blue staining (lower panel) confirmed substrate loading.
FLAG-JNK1 proteins were immunoprecipitated by addition of anti-FLAG M2 (SIGMA) and incubation for 1 h on ice and then addition of Protein G-Sepharose and incubation at 4° C. for 2 h with rotation. Immunocomplexes were washed three times with lysis buffer, then once with reaction buffer (20 mM HEPES, 20 mM MgCl2, 20 mM β-glycerophosphate, 500 μM DTT, 100 μM Na3VO4; pH 7.6). For assays of JNK activity, the washed complexes were resuspended in 40 μL of reaction buffer containing 10 μg GST-c-Jun (1-135), 20 μM ATP and 1 μCi [λ-^32P]ATP and incubated at 30° C. for 30 min. Reactions were stopped by addition of 3× SDS-PAGE Sample Buffer and proteins were separated by SDS-PAGE. JNK activity towards GST-c-Jun (1-135) was visualized by autoradiography and quantitated by Cerenkov counting. For assays of JNK activation, the washed beads were incubated with 30 μL of reaction buffer containing 20 μM ATP, 5 μCi [λ-^32P]ATP and 1 μg of GST-MKK4(ED) at 30° C. for 1 h with occasional mixing. After removal of the supernatant, the beads were washed in 200 μl ice-cold lysis buffer and then heated for 5 min at 100° C. in 15 μL of 3× SDS-PAGE sample buffer, prior to separation by SDS-PAGE. Gels were Coomassie-stained, dried and used for autoradiography. Gel bands corresponding to FLAG-JNK were excised from the gels and their radioactivity quantitated by Cerenkov counting. Where immunoprecipitated GST-MKK7β1 was used to activate JNK, reactions were performed as above, but with 1 μCi [λ-^32P]ATP and incubation at 30° C. for 30 min.

[3] = molecular target: T2, TI-JIP (Homo sapiens, UniProt Q9UQF2); assay: Yeast two-hybrid screening / β-galactosidase overlay assay of JNK1 point mutants for interaction with TI-JIP; type: cell-based; conditions: single point mutants of JNK1, full-length expression confirmed by Western blot
T2 construct: Oligonucleotides encoding TI-JIP were annealed; expressed in transfected cells; host or cells: yeast diploids, RFY 206 (pSH18-34, pGILDA-TI-JIP) mated to PRT 49 (JNK mutants in pJG4-5)

[4] = test system: GST-c-Jun(1-135); assay: In vitro kinase assay of FLAG-immunoprecipitated JNK1 from transfected COS cells towards GST-c-Jun(1-135); type: biochemical
Protocol: FIG. 14b is a representation showing a typical autoradiograph (upper panel) illustrating phosphorylation of GST-c-Jun(1-135) by wild-type (WT) JNK and mutants (n=2) for COS cells transfected as described in the legend to FIG. 14a. Transfected cells were incubated without sorbitol or exposed to hyperosmotic shock (0.5 M sorbitol, 30 min) prior to lysis. FLAG-tagged JNK1 and mutants were immunoprecipitated from cell lysates and then assayed for activity towards GST-c-Jun(1-135) using in vitro kinase assays. Coomassie Blue staining (lower panel) confirmed substrate loading.
FIG. 14c is a photographic representation showing a typical autoradiograph (upper panel) illustrating phosphorylation of GST-c-Jun(1-135) by wild-type (WT) JNK and mutants (n=2) for COS cells transfected as described in the legend to FIG. 14a, or co-transfected with a constitutively-active MEKK1 construct (CA-MEKK1). […]
FLAG-JNK1 proteins were immunoprecipitated by addition of anti-FLAG M2 (SIGMA) and incubation for 1 h on ice and then addition of Protein G-Sepharose and incubation at 4° C. for 2 h with rotation. […] JNK activity towards GST-c-Jun (1-135) was visualized by autoradiography and quantitated by Cerenkov counting. […] Gel bands corresponding to FLAG-JNK were excised from the gels and their radioactivity quantitated by Cerenkov counting. […]

| phosphorylation/activation of JNK by MKK7 [1] | interaction of JNK1 mutant with TI-JIP ([3]; listed as L131→R131) | Molecule | phosphorylation/activation of JNK by active MKK4 [2] | interaction of JNK1 mutant with TI-JIP [3] | increase in c-Jun phosphorylation relative to cells transfected with JNK alone ([4]; COS cells co-transfected with constitutively-active MEKK1 (CA-MEKK1)) [fold] | activation of c-Jun phosphorylation over corresponding unstimulated cells ([4]; COS cells, hyperosmotic shock 0.5 M sorbitol, 30 min) [fold] |
| --- | --- | --- | --- | --- | --- | --- |
| impaired in their activation | prevent interaction of JNK with TI-JIP | Leu-131-Arg: single point mutant of human JNK1 (SEQ ID NO: 1) (protein, homo sapiens) MSRSKRDNNFYSVEIGDSTFTVLKRYQNLKPIGSGAQGIVCAAYDAILERNVAIKKLSRPFQNQTHAKRAYRELVLMKCVNHKNIIGLLNVFTPQKSLEEFQDVYIVMELMDANLCQVIQMELDHERMSYRLYQMLCGIKHLHSAGIIHRDLKPSNIVVKSDCTLKILDFGLARTAGTSFMMTPYVVTRYYRAPEVILGMGYKENVDLWSVGCIMGEMVCHKILFPGRDYIDQWNKVIEQLGTPCPEFMKKLQPTVRTYVENRPKYAGYSFEKLFPDVLFPADSEHNKLKASQARDLLSKMLVIDASKRISVDEALQHPYINVWYDPSEAEAPPPKIPDKQLDEREHTIEEWKELIYKEVMDLEERTKNGVIRGQPSPLAQVQQ | impaired in their activation | incapable of interaction with TI-JIP; also recorded: did not interact with TI-JIP |  |  |
|  |  | Arg-309-Trp: single point mutant of human JNK1 (SEQ ID NO: 1) (protein, homo sapiens) MSRSKRDNNFYSVEIGDSTFTVLKRYQNLKPIGSGAQGIVCAAYDAILERNVAIKKLSRPFQNQTHAKRAYRELVLMKCVNHKNIIGLLNVFTPQKSLEEFQDVYIVMELMDANLCQVIQMELDHERMSYLLYQMLCGIKHLHSAGIIHRDLKPSNIVVKSDCTLKILDFGLARTAGTSFMMTPYVVTRYYRAPEVILGMGYKENVDLWSVGCIMGEMVCHKILFPGRDYIDQWNKVIEQLGTPCPEFMKKLQPTVRTYVENRPKYAGYSFEKLFPDVLFPADSEHNKLKASQARDLLSKMLVIDASKWISVDEALQHPYINVWYDPSEAEAPPPKIPDKQLDEREHTIEEWKELIYKEVMDLEERTKNGVIRGQPSPLAQVQQ | impaired in their activation |  |  |  |
| strongly phosphorylated by MKK7 |  | wildtype JNK1: FLAG-tagged wild-type human JNK1 (SEQ ID NO: 1) expressed from pCMV-FLAG-JNK1 (protein, FLAG tag; homo sapiens) MSRSKRDNNFYSVEIGDSTFTVLKRYQNLKPIGSGAQGIVCAAYDAILERNVAIKKLSRPFQNQTHAKRAYRELVLMKCVNHKNIIGLLNVFTPQKSLEEFQDVYIVMELMDANLCQVIQMELDHERMSYLLYQMLCGIKHLHSAGIIHRDLKPSNIVVKSDCTLKILDFGLARTAGTSFMMTPYVVTRYYRAPEVILGMGYKENVDLWSVGCIMGEMVCHKILFPGRDYIDQWNKVIEQLGTPCPEFMKKLQPTVRTYVENRPKYAGYSFEKLFPDVLFPADSEHNKLKASQARDLLSKMLVIDASKRISVDEALQHPYINVWYDPSEAEAPPPKIPDKQLDEREHTIEEWKELIYKEVMDLEERTKNGVIRGQPSPLAQVQQ | increased the phosphorylation |  | 240 | 5.5 |
|  |  | Tyr-320-His: single point mutant of human JNK1 (SEQ ID NO: 1) (protein, homo sapiens) MSRSKRDNNFYSVEIGDSTFTVLKRYQNLKPIGSGAQGIVCAAYDAILERNVAIKKLSRPFQNQTHAKRAYRELVLMKCVNHKNIIGLLNVFTPQKSLEEFQDVYIVMELMDANLCQVIQMELDHERMSYLLYQMLCGIKHLHSAGIIHRDLKPSNIVVKSDCTLKILDFGLARTAGTSFMMTPYVVTRYYRAPEVILGMGYKENVDLWSVGCIMGEMVCHKILFPGRDYIDQWNKVIEQLGTPCPEFMKKLQPTVRTYVENRPKYAGYSFEKLFPDVLFPADSEHNKLKASQARDLLSKMLVIDASKRISVDEALQHPHINVWYDPSEAEAPPPKIPDKQLDEREHTIEEWKELIYKEVMDLEERTKNGVIRGQPSPLAQVQQ | impaired in their activation |  |  |  |
